The chains are these.
B3: BMP-6 (ligand, UniProt P22004 382-513, looked up)
chain: QQSRNRSTQSQDVARVSSASDYNSSELKTACRKHELYVSFQDLGWQDWIIAPKGYAANYCDGECSFPLNAHMNATNHAIVQTLVHLMNPEYVPKPCCAPTKLNAISVLYFDDNSNVILKKYRNMVVRACGCH
notes: also called bone morphogenic protein 6

Test [1] concerns the target B3. Kind of test: ELISA-based competition: receptor-Fc against coated sclerostin for BMP-6 (11 nM).
Test [2] addresses B3. Kind of test: ELISA-based competition: 10-fold molar excess of receptor-Fc against coated sclerostin for BMP-6. For orientation: ELISA stands for enzyme-linked immunosorbent assay.
For test [3], the target named is B3. Kind of test: ELISA-based competition: receptor-Fc against coated sclerostin for BMP-6. The method, then: (§1) A 10-fold molar excess of the BMP receptor was sufficient to reduce binding of sclerostin to BMP-6 by approximately 50%. This competition was also observed with a BMP receptor II-FC fusion protein (IC₅₀=36 nM) and DAN (IC₅₀=43 nM).
Test [4] has as its target B3. Kind of test: ELISA-based competition: DAN against coated sclerostin for BMP-6.
A further test has as its target T1, sclerostin (Homo sapiens (Human), UniProt Q9BQB4 24-213).
T1 construct: also called SOST; Beer
T1 sequence: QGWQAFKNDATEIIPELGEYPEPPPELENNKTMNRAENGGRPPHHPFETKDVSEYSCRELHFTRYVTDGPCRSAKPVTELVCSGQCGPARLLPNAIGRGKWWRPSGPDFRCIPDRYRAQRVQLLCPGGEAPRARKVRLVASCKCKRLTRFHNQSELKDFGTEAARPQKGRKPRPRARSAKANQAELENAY
In words: ELISA, BMP-6 on a sclerostin-coated surface (300 ng/well). The method, then:
as §1

The results in this text go back to patent US20120321636A1 (UCB, published 2012).

With BMP receptor IA (FC fusion construct), the IC50 – broadly, the point on the concentration scale where inhibition reaches its midpoint – with BMP-6 [1] is 114 nM. The same molecule yielded a percent reduction of sclerostin binding to BMP-6 at 10-fold molar excess with BMP-6 [2] of 50%.

B1: BMP receptor II-FC fusion protein (Fc fusion, not shown: a dimerising Fc or GST; small tags and cut ends)
chain: SQNQERLCAFKDPYQQDLGIGESRISHENGTILCSKGSTCYGLWEKSKGDINLVKQGCWSHIGDPQECHYEECVVTTTPPSIQNGTYRFCCCSTDLCNVNFTENFPPPDTTPLSPPHSFNRDET
notes: also called BMPR-II
B1 showed an IC50 with BMP-6 [3] of 36 nM. This counts as double-digit nanomolar.

B2: DAN (ligand)
chain: AAPPPINKLALFPDKSAWCEAKNITQIVGHSGCEAKSIQNRACLGQCFSYSVPNTFPQSTESLVHCDSCMPAQSMWEIVTLECPGHEEVPRVDKLVEKILHCSCQACGKEPSHEGLSVYVQGEDGPGSQPGTHPHPHPHPHPGGQTPEPEDPPGAPHTEEEGAED
In the test with BMP-6 [4], B2 displayed an IC50 of 43 nM.
In the case of B3, the Kd (commonly the constant that tells how readily two partners part at equilibrium) with sclerostin was 3.4 nM.
